Laboratory results published in IntAct's records for PubMed 25220469.

B1: Small G protein signaling modulator 1 (Mus musculus), Q8BPQ7-1 (parent)
chain: MASVPAEAETRQRLLRTVKKEVKQIMEEAVTRKFVHEDSSHIISFCAAVEACVLHGLRRRAAGFLRSNKIAALFMKVGKGFPPAEELSRKVQELEQLIESARNQIQGLQENVRKLPKLPNLSPLAIKHLWIRTALFGRVLDKIVHYLVENSSKYYEKEALLMDPVDGPILASLLVGPCALEYTKMKTADHFWTDPSADELVQRHRIHSSHLRQDSPTKRPALCIQKRHSSGSMDDRPSISARDYVESLHQDSRATLLYGKNNVLVQPRDDMEAVPGYLSLHQTADVMTLKWTPNQLMNGSVGDLDYEKSVYWDYAVTIRLEEIVYLHCHQQVDSGGTVVLVSQDGIQRPPFRFPKGGHLLQFLSCLENGLLPHGQLDPPLWSQRGKGKVFPKLRKRSPQGSSESTSSDKEDDEATDYVFRIIYPGTQSEFVPQDLMDVSMNNLPPLWQPSPRKSSCSSCSQSGSADGGSTNGCNHERAPLKLLCDNMKYQILSRAFYGWLAYCRHLSTVRTHLSALVNHMIVSPDLPCDAGQGLTASIWEKYIQDSTTYPEQELLRLIYYGGVQPEIRRAVWPFLLGHYQFGMTEMERKEVDEQIHACYAQTMSEWLGCEAIVRQRERESHAAALAKCSSGASLDSHLHRMLHRDSTISNESSQSCSSGRQNLRLQSDSSSSTQVFESVDEVEQTEAEGRSEEKHPKIPNGNPANGTCSPDSGHPSSHNFSSGLSEHSEPSLSTEDSVLDAQRSLPAVFRPGDSSVEDGQSSEATTSRDEAPREELAVQDSLESDLLANESLEEFMSIPGSLDVALPEKDGAVMDGWPGEADKPSRADSEDNLSEEPEMESLFPALASLAVTSSANNEASPVSSSGVTYSPELLDLYTVNLHRIEKDVQRCDRSYWYFTAANLEKLRNIMCSYIWQHIEIGYVQGMCDLLAPLLVILDDEALAFSCFTELMKRMNQNFPHGGAMDTHFANMRSLIQILDSELFELMHQNGDYTHFYFCYRWFLLDFKRELVYDDVFSVWETIWAAKHVSSAHYVLFIALALVEVYRDIILENNMDFTDIIKFFNEMAERHNAKQILQLARDLVHKVQILIENK
partner: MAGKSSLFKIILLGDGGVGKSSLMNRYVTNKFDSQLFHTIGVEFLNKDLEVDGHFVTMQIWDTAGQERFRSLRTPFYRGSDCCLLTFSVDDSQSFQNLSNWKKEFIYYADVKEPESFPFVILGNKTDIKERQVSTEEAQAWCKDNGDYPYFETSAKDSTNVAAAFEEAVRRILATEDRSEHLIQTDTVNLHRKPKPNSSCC
B2: Ras-related protein Rab-9A (Mus musculus), Q9R0M6 (parent)
chain: B1 partner
partner: B1 chain

Variants of: B1
Conditions: with rab9a_mouse Rab9a

effect of a mutation on the interaction | Variant
disrupting interaction strength | L256A
disrupting interaction strength | Y277A
disrupting interaction strength | M297A
disrupting interaction strength | N261A
disrupting interaction strength | N294A
disrupting interaction strength | K260A

Variants of: B1
Conditions: with rab9a_mouse Rab9a
Remark: another data set of the same source

effect of a mutation on the interaction | Variant
decreasing interaction strength | L256A
decreasing interaction strength | M297A
decreasing interaction strength | K260A

Variants of: B2
Conditions: with Sgsm1, Q8BPQ7-1

effect of a mutation on the interaction | Variant
decreasing interaction strength | F44A
decreasing interaction strength | V42A
decreasing interaction strength | E43A
decreasing interaction strength | F76A
disrupting interaction strength | G41A
disrupting interaction strength | G41D
decreasing interaction strength | W61A
decreasing interaction strength | I40A

Variants of: B2
Conditions: with Sgsm1, Q8BPQ7-1
Remark: another data set of the same source

effect of a mutation on the interaction | Variant
decreasing interaction strength | F69A
decreasing interaction strength | L72A
decreasing interaction strength | G41A
decreasing interaction strength | G41D
